In patent US20230034906A1 (TRINOMAB BIOTECH, published 2023):

Key:
Assay in all cases: indirect ELISA, antibody titrated on gB glycoprotein mutant
[1] = biological target: T1, gB_Towne protein with N341 mutated into glutamine (human cytomegalovirus, strain Towne, UniProt F5HB53 25-700)
T1 chain: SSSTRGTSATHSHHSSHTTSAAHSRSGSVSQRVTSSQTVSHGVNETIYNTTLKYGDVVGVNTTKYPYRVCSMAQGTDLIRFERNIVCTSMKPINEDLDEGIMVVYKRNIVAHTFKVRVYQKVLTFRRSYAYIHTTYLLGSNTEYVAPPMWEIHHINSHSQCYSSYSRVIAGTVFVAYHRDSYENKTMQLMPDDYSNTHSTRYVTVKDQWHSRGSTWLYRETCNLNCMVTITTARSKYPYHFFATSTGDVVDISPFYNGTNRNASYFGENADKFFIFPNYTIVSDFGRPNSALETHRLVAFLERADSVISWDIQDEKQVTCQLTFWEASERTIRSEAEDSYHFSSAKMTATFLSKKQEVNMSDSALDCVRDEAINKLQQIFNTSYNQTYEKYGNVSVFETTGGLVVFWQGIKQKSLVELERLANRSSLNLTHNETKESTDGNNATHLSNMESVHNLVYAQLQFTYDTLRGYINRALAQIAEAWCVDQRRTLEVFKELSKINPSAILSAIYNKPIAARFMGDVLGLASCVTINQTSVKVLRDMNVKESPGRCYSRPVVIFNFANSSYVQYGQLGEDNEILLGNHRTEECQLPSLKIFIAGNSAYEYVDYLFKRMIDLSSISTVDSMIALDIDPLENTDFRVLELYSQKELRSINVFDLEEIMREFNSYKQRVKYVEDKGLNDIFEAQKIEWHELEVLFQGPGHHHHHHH

[2] = biological target: T2, gB_Towne protein with N417 mutated into glutamine (human cytomegalovirus, strain Towne, UniProt F5HB53 25-700)
T2 chain: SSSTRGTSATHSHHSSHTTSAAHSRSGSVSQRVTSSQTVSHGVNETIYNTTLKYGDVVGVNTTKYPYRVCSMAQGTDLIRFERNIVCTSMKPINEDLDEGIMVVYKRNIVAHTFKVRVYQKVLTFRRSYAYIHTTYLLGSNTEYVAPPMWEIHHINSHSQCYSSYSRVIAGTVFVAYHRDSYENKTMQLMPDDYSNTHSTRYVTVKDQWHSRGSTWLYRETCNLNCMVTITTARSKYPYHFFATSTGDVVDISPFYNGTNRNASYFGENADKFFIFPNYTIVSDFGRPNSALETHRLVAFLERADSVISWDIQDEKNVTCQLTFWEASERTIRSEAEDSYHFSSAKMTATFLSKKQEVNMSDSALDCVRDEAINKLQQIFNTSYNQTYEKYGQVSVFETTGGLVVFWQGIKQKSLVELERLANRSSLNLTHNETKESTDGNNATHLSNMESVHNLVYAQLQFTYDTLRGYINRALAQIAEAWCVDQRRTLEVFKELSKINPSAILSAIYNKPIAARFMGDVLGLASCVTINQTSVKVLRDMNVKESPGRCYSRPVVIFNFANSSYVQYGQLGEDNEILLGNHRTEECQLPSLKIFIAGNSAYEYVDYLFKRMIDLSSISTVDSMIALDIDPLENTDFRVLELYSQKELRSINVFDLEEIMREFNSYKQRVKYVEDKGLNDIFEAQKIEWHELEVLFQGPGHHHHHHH

[3] = biological target: T3, gB_Towne protein with N452 mutated into glutamine (human cytomegalovirus, strain Towne, UniProt F5HB53 25-700)
T3 chain: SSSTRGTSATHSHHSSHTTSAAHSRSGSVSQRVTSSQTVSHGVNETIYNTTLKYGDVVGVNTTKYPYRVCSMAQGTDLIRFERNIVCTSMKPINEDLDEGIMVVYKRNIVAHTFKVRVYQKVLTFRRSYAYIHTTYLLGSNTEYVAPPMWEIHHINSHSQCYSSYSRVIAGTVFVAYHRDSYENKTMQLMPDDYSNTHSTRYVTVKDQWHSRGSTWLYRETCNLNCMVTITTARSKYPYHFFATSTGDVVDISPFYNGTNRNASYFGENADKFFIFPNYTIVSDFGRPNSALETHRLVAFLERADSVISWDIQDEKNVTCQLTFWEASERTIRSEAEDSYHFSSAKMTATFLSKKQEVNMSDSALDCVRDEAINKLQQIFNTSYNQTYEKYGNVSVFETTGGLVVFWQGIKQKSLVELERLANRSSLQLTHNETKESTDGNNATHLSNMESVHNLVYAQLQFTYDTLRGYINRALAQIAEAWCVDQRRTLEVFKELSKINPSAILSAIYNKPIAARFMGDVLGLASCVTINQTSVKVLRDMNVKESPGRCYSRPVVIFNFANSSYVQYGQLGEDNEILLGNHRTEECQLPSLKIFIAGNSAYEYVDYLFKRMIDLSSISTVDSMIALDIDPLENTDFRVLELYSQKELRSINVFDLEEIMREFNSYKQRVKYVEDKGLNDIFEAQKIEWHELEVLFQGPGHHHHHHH

[4] = biological target: T4, N208Q mutant of gB glycoprotein (gB_Towne protein) (human cytomegalovirus, strain Towne, UniProt F5HB53 25-700)
T4 construct: also called gB glycoprotein N208Q mutant
T4 chain: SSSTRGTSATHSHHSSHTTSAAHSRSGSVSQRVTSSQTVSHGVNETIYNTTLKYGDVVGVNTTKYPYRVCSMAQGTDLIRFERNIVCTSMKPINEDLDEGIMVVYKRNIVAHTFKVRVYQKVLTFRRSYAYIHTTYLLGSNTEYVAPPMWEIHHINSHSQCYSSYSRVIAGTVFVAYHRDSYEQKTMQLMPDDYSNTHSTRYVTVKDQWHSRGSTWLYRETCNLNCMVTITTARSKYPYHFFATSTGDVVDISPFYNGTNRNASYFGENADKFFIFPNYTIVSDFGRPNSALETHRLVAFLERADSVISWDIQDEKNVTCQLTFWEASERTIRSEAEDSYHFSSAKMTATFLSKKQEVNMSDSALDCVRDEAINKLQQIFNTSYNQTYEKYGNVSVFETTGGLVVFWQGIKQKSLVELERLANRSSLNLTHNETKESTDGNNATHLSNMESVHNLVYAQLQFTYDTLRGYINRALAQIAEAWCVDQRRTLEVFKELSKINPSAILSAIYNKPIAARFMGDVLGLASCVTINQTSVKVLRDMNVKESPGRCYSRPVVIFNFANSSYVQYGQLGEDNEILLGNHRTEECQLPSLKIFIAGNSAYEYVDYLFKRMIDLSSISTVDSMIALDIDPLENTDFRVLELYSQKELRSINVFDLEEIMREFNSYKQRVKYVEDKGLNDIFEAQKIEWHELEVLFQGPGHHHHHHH

Measured: binding result

B1: TRN1019 (antibody, V domains shown)
VH: QVQLVQSGAEVKKPGESLKISCKGSGYTFTNYWIGWVRQMPGAGLEWMAIIFPRDSYSAYSPSFQGRVTISVDKSISTAYLHWSSLEASDTAVYYCAIYNDLRSGNSWGQGTPLIVSS
VL: DIQMTQSPSSLSASVGDRVTITCRASQSITKYLNWYQQKPGRAPKLLIHTTSTLQSGVPSRFSGSGSGTDFTLTISSLQLEDFGTYYCQQSFSTLWTFGQGTKLDIKR
notes: Fully human antibody; kappa light chain
binds: all assays above
